Paper PMC5840378, “Cytochrome c speeds up caspase cascade activation by blocking 14-3-3ε-dependent Apaf-1 inhibition” (Cell Death & Disease, 2018)
No end group written: not given here.

Assays:
[1] = molecular target: the molecule itself; assay: AUC + other: dynamic light scattering; sedimentation velocity, 20 °C, 45,000 r.p.m., 37 μM, 5 mM sodium phosphate pH 6.3; DLS at 0.1 mg/mL, 25 °C, same buffer
[2] = molecular target: T1, cytochrome c (Cc), recombinant (human, UniProt P99999 1-105, heme group; 15N-labelled for the 2D NMR titrations); assay: ITC; Auto-ITC200, 25 °C; 2-μL injections of 300 μM Cc into the cell with 20 μM 14-3-3ε species or peptide; 10 mM sodium phosphate pH 7.4; details: both partners purified
T1 construct: Met80 is M81 in P99999); Reduced with sodium ascorbate in the NMR experiments; also called hemeprotein; reduced Cc; source: E. coli BL21 (DE3), purified (ionic chromatography, carboxy-methylcellulose)
T1 sequence (P99999 whole entry): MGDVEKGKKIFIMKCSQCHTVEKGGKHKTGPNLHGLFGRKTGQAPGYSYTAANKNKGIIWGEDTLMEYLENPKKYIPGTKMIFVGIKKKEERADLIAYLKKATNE

[3] = molecular target: T1, cytochrome c (Cc), recombinant; assay: NMR titration; 50 μM reduced 15N-labelled Cc titrated with unlabeled 14-3-3ε FL (700 MHz) or 14-3-3ε_(234-255) peptide (600 MHz); 1D 1H and 2D [1H,15N] HSQC; 25 °C; 5 mM sodium phosphate pH 6.3, 0.1 M sodium ascorbate; CSP curves fitted with a one-site model; details: both partners purified
[4] = molecular target: T1, cytochrome c (Cc), recombinant; assay: NMR titration; 1D 19F NMR of the fluorinated 14-3-3ε_(234-255) peptide titrated with Cc or BSA; 25 °C; 600 MHz; 10 mM sodium phosphate pH 6.3; details: both partners purified

| Binder | stoichiometry N [1] | other results |
| --- | --- | --- |
| 14-3-3ε FL D21K (natural protein, UniProt P62258 1-255, looked up, 14-3-3ε full length with D21K; source: E. coli BL21 (DE3), purified (Ni Sepharose); mutant obtained from Mutagenex Inc) MDDREDLVYQAKLAEQAERYKEMVESMKKVAGMDVELTVEERNLLSVAYKNVIGARRASWRIISSIEQKEENKGGEDKLKMIREYRQMVETELKLICCDILDVLDKHLIPAANTGESKVFYYKMKGDYHRYLAEFATGNDRKEAAENSLVAYKAASDIAMTELPPTHPIRLGLALNFSVFYYEILNSPDRACRLAKAAFDDAIAELDTLSEESYKDSTLIMQLLRDNLTLWTSDMQGDGEEQNKEALQDVEDENQ | 2 | – |
| 14-3-3ε FL E92K (natural protein, UniProt P62258 1-255, looked up, 14-3-3ε full length with E92K; source: E. coli BL21 (DE3), purified (Ni Sepharose); mutant obtained from Mutagenex Inc) MDDREDLVYQAKLAEQAERYDEMVESMKKVAGMDVELTVEERNLLSVAYKNVIGARRASWRIISSIEQKEENKGGEDKLKMIREYRQMVETKLKLICCDILDVLDKHLIPAANTGESKVFYYKMKGDYHRYLAEFATGNDRKEAAENSLVAYKAASDIAMTELPPTHPIRLGLALNFSVFYYEILNSPDRACRLAKAAFDDAIAELDTLSEESYKDSTLIMQLLRDNLTLWTSDMQGDGEEQNKEALQDVEDENQ | 2 | – |
| 14-3-3ε FL S187D (natural protein, UniProt P62258 1-255, looked up, 14-3-3ε full length with S187D; source: E. coli BL21 (DE3), purified (Ni Sepharose); mutant obtained from Mutagenex Inc) MDDREDLVYQAKLAEQAERYDEMVESMKKVAGMDVELTVEERNLLSVAYKNVIGARRASWRIISSIEQKEENKGGEDKLKMIREYRQMVETELKLICCDILDVLDKHLIPAANTGESKVFYYKMKGDYHRYLAEFATGNDRKEAAENSLVAYKAASDIAMTELPPTHPIRLGLALNFSVFYYEILNDPDRACRLAKAAFDDAIAELDTLSEESYKDSTLIMQLLRDNLTLWTSDMQGDGEEQNKEALQDVEDENQ | 2 | – |
| 14-3-3ε FL D99K (natural protein, UniProt P62258 1-255, looked up, 14-3-3ε full length with D99K; source: E. coli BL21 (DE3), purified (Ni Sepharose); mutant obtained from Mutagenex Inc) MDDREDLVYQAKLAEQAERYDEMVESMKKVAGMDVELTVEERNLLSVAYKNVIGARRASWRIISSIEQKEENKGGEDKLKMIREYRQMVETELKLICCKILDVLDKHLIPAANTGESKVFYYKMKGDYHRYLAEFATGNDRKEAAENSLVAYKAASDIAMTELPPTHPIRLGLALNFSVFYYEILNSPDRACRLAKAAFDDAIAELDTLSEESYKDSTLIMQLLRDNLTLWTSDMQGDGEEQNKEALQDVEDENQ | 2 | – |
| 14-3-3ε FL K50E (natural protein, UniProt P62258 1-255, looked up, 14-3-3ε full length with K50E; source: E. coli BL21 (DE3), purified (Ni Sepharose); mutant obtained from Mutagenex Inc) MDDREDLVYQAKLAEQAERYDEMVESMKKVAGMDVELTVEERNLLSVAYENVIGARRASWRIISSIEQKEENKGGEDKLKMIREYRQMVETELKLICCDILDVLDKHLIPAANTGESKVFYYKMKGDYHRYLAEFATGNDRKEAAENSLVAYKAASDIAMTELPPTHPIRLGLALNFSVFYYEILNSPDRACRLAKAAFDDAIAELDTLSEESYKDSTLIMQLLRDNLTLWTSDMQGDGEEQNKEALQDVEDENQ | 2 | – |
| 14-3-3ε FL S59E (natural protein, UniProt P62258 1-255, looked up, 14-3-3ε full length with S59E; source: E. coli BL21 (DE3), purified (Ni Sepharose); mutant obtained from Mutagenex Inc) MDDREDLVYQAKLAEQAERYDEMVESMKKVAGMDVELTVEERNLLSVAYKNVIGARRAEWRIISSIEQKEENKGGEDKLKMIREYRQMVETELKLICCDILDVLDKHLIPAANTGESKVFYYKMKGDYHRYLAEFATGNDRKEAAENSLVAYKAASDIAMTELPPTHPIRLGLALNFSVFYYEILNSPDRACRLAKAAFDDAIAELDTLSEESYKDSTLIMQLLRDNLTLWTSDMQGDGEEQNKEALQDVEDENQ | 2 | – |
| DMQGDGEEQNKEALQDVEDENQ (peptide, UniProt P62258 234-255, looked up, 14-3-3ε, C-terminal tail, residues 234-255; also called non-acetylated peptide; C-terminal tail of 14-3-3ε; source: bought: Genosphere Biotechnologies (France)) [14-3-3ε C-terminal peptide (14-3-3ε_(234-255))] | – | Kd [2]: 16 µM; Kd [3]: 49 µM |
| Ac-DMQGDGEEQNK(5‑fluorindole)EALQDVEDENQ (peptide, UniProt P62258 234-255, looked up, 14-3-3ε, C-terminal tail, residues 234-255; source: acetylated 14-3-3ε_(234-255) peptide conjugated with 5-fluoroindole (formaldehyde, 24 h, 30 °C), dialyzed) [fluorinated 14-3-3ε_(234-255) peptide (Lys244 covalently bound to 5-fluorindole)] | – | binding result [4]: binds |
| Ac-DMQGDGEEQNKEALQDVEDENQ (peptide, UniProt P62258 234-255, looked up, 14-3-3ε, C-terminal tail, residues 234-255, N-terminally acetylated; also called acetylated peptide) [acetylated 14-3-3ε_(234-255) peptide] | – | binding result [2]: binds |
